We go through one molecule from publication PMC4987126 (Molecular immunology, 2016).

The target of the test is T1, synthetic peptide of the C1q A chain, residues 14–26 (collagen region).
T1 peptide: AGRPGRRGRPGLK
Put plainly: ELISA.

For PWNASWSNKSLDDIWNC [gp41-3S, 17-residue synthetic peptide corresponding to the 3S motif of gp41], the binding result is listed as “binds”.
